T1: Cy3-conjugated IκBα (UniProt P25963 1-317, limits assumed, Cy3 label (monofunctional reactive dye; site not stated))
T1 construct: Used in solution at 0.1 ug/ml; also called Cy3-IκBα
T1 sequence (looked up): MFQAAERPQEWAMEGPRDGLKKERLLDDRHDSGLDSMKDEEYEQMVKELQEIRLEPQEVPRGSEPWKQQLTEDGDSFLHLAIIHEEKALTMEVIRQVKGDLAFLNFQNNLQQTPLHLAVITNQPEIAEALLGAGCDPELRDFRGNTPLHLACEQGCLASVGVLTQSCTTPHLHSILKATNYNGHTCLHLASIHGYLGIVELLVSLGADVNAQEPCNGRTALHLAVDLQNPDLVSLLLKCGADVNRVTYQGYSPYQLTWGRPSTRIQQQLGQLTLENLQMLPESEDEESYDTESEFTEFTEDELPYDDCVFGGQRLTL

B1: Protein G (other, UniProt P19909 303-497, looked up)
chain: TYKLILNGKTLKGETTTEAVDAATAEKVFKQYANDNGVDGEWTYDDATKTFTVTEKPEVIDASELTPAVTTYKLVINGKTLKGETTTEAVDAATAEKVFKQYANDNGVDGEWTYDDATKTFTVTEKPEVIDASELTPAVTTYKLVINGKTLKGETTTKAVDAETAEKAFKQYANDNGVDGVWTYDDATKTFTVTE
notes: Spotted on aldehyde (SMA) glass slides at 100 ug/ml; The commercial product may be a truncated recombinant form
B2: GST-FRB (other)
chain: ELIRVAILWHEMWHEGLEEASRLYFGERNVKGMFEVLEPLHAMMERGPQTLKETSFNQAYGRDLMEAQEWCRKYMKSGNVKDLTQAWDLYYHVFRRISKQ
notes: domain: FRB domain of FRAP; Produced recombinantly in E. coli; The text calls the spotted protein both 'GST-FRB' and 'FRB'; also called FRB domain of FRAP; not shown: GST (glutathione S-transferase) fusion partner

Molecular target: T1, Cy3-conjugated IκBα
Test: protein microarray on aldehyde glass slide, fluorescent probe in solution (FIG. 1B)

Binder | binding result
B1 | no binding (tested: 0.1 µg/ml)
B2 | no binding (tested: 0.1 µg/ml)

Reference: patent US20020102617A1 (published 2002)
